Reference: patent publication US20250230251A1 (Bristol-Myers Squibb, published 2025)
Positions count from the first letter of the chain named. Where two headings read alike, the source gives them in different places.

Key:
[1] = target: T1, huIL-18Rβ-HisAvi (human, UniProt O95256 20-356, biotinylated in the Octet blocking assay); assay: SPR T200, pH 7.4; sample stored at pH 8, 4 w 4C
T1 construct: Soluble analyte in all SPR runs; captured on streptavidin sensors in the Octet assay; also called human IL-18Rβ; human IL-18Rβ-Avi-His
T1 sequence: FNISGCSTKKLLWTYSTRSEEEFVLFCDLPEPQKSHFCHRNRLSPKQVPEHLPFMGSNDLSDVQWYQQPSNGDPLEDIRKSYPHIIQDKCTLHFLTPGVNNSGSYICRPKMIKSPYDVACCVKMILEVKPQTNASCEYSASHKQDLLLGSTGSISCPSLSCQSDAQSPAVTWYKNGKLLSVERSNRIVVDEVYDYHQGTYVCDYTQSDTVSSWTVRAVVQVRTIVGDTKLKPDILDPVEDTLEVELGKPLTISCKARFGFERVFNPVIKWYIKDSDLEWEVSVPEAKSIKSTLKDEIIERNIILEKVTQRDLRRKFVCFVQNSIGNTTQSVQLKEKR

[2] = target: T1, huIL-18Rβ-HisAvi; assay: SPR T200, pH 7.4; sample stored at pH 6, 4 w 4C
[3] = target: T1, huIL-18Rβ-HisAvi; assay: SPR Biacore T200, mAb captured on anti-human Fc, huIL-18Rβ-HisAvi as analyte, PBST pH 5.5, 37 °C, 1:1 Binding fit
[4] = target: T1, huIL-18Rβ-HisAvi; assay: SPR T200, mAb on anti-hFc, 37C, pH 7.4; pH 7.4
[5] = target: T2, human IL-18Rβ on cells (human, UniProt O95256 20-599); assay: cell-based or functional assay
T2 sequence: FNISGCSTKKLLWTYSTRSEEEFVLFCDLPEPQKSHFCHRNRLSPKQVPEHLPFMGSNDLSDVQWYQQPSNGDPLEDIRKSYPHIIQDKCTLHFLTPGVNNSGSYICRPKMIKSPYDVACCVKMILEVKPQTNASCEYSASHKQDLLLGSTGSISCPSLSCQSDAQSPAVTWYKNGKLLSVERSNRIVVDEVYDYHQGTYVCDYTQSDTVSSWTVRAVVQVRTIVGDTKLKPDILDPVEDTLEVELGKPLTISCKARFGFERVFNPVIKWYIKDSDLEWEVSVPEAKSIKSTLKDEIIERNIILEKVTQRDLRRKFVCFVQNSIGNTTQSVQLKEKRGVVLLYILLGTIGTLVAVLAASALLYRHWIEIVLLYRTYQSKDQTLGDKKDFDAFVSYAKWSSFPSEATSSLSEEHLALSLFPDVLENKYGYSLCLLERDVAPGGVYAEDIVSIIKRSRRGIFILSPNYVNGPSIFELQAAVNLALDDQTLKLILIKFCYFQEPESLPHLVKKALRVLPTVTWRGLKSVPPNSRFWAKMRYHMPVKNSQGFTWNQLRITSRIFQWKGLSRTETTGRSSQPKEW

[6] = target: T3, cyIL-18Rβ-HisAvi (cynomolgus monkey); assay: SPR screen, 1:1 fit
T3 construct: Soluble analyte in SPR; also called cyno IL-18Rβ; cynomolgus monkey IL-18Rβ
T3 chain: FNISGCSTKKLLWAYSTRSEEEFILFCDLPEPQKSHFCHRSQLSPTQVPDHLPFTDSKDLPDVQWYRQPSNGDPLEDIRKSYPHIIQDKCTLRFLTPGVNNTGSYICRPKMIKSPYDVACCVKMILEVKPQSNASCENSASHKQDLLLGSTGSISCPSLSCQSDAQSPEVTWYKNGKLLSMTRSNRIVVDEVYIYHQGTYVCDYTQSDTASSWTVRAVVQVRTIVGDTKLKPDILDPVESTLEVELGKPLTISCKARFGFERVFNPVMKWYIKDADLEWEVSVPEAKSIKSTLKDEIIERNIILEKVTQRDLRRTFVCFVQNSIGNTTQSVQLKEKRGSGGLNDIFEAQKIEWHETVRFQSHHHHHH

[7] = target: T1, huIL-18Rβ-HisAvi; assay: SPR screen, 1:1 fit
[8] = target: T2, human IL-18Rβ on cells; assay: cell-based or functional assay; remark: listed apart in the source
[9] = target: the molecule itself; assay: clone self-interaction BLI, antibody on AHQ sensor against 1 µM of the same antibody
[10] = target: T1, huIL-18Rβ-HisAvi; assay: SPR T200, mAb on anti-hFc, 37C, pH 6
[11] = target: T1, huIL-18Rβ-HisAvi; assay: SPR T200, mAb on anti-hFc, 37C, pH 5
[12] = target: T1, huIL-18Rβ-HisAvi; assay: SPR T200, pH 5 against pH 7.4
[13] = target: T2, human IL-18Rβ on cells; assay: cell-based or functional assay; remark: listed apart in the source
[14] = target: T1, huIL-18Rβ-HisAvi; assay: SPR T200, pH 7; sample 4 w 40C

B1: P20 (antibody, human IgG1, kappa)
heavy: QVQLQQSGPGLVKPSETLSLTCTVSGGSINNYYWSWIRQPPGKGLEWIGYIFYSGTTNYNPSLKSRVTISVDTSKNQFSLKLSSVTAADTAVYYCARDVGIAARNSYYYVMDVWGQGTTVTVSSASTKGPSVFPLAPSSKSTSGGTAALGCLVKDYFPEPVTVSWNSGALTSGVHTFPAVLQSSGLYSLSSVVTVPSSSLGTQTYICNVNHKPSNTKVDKRVEPKSCDKTHTCPPCPAPEAEGAPSVFLFPPKPKDTLMISRTPEVTCVVVDVSHEDPEVKFNWYVDGVEVHNAKTKPREEQYNSTYRVVSVLTVLHQDWLNGKEYKCKVSNKALPAPIEKTISKAKGQPREPQVYTLPPSREEMTKNQVSLTCLVKGFYPSDIAVEWESNGQPENNYKTTPPVLDSDGSFFLYSKLTVDKSRWQQGNVFSCSVMHEALHNHYTQKSLSLSPG
light: AIQLTQSPSSLSASVGDRVTITCRASQGISSALAWYQQKPGKAPKFLIYDASSLESGVPSRFSGSGSGTDFTLTISSLQPEDFATYYCQQFNSYPITFGQGTRLEIKRTVAAPSVFIFPPSDEQLKSGTASVVCLLNNFYPREAKVQWKVDNALQSGNSQESVTEQDSKDSTYSLSSTLTLSKADYEKHKVYACEVTHQGLSSPVTKSFNRGEC
notes: Human IgG
B1 was tested. Which “apparent Kd (pooled screen)” value [1] did it give?
Its value is 1.5 nM.

What about the “apparent koff (pooled screen)” value [1] of the same binder?
The value was 0.00035 s⁻¹.

And the “apparent kon (pooled screen)” value [1]?
The value was 230000 M⁻¹ s⁻¹.

What about the “apparent Kd (pooled screen)” value [2] of the same binder?
The value was 1.5 nM.

What about the “apparent koff (pooled screen)” value [2] of the same binder?
The value was 0.00036 s⁻¹.

What about the “apparent kon (pooled screen)” value [2] of the same binder?
Its value is 240000 M⁻¹ s⁻¹.

What about the “apparent Kd (pooled screen)” value [3] of the same binder?
The value was 2.56 nM.

What about the “apparent koff (pooled screen)” value [3] of the same binder?
Its value is 0.000282 s⁻¹.

And the “apparent kon (pooled screen)” value [3]?
Its value is 110000 M⁻¹ s⁻¹.

And the “apparent kon (pooled screen)” value [4]?
The value was 330000 M⁻¹ s⁻¹.

And the “IC50, LPS+IL-12 dependent IFNg production, human whole blood” value [5]?
Its value is 0.7 nM.

And the “y-max, LPS+IL-12 dependent IFNg production, human whole blood” value [5]?
Its value is 98%.

And the Kd [6]?
Its Kd is 3.8 nM.

What about the “apparent Kd (pooled screen)” value [7] of the same binder?
The value was 1.4 nM.

And the “IC50, LPS+IL-12 dependent IFNg production, human whole blood” value [8]?
Its value is 1.66 nM.

What about the “Average CSI-BLI ΔResponse” value [9] of the same binder?
Its value is 0.02 nm.

What about the “apparent Kd (pooled screen)” value [10] of the same binder?
Its value is 0.43 nM.

What about the “apparent koff (pooled screen)” value [10] of the same binder?
Its value is 0.00016 s⁻¹.

What about the “apparent kon (pooled screen)” value [10] of the same binder?
Its value is 380000 M⁻¹ s⁻¹.

What about the “apparent Kd (pooled screen)” value [11] of the same binder?
The value was 2 nM.

And the “apparent koff (pooled screen)” value [11]?
The value was 0.00021 s⁻¹.

And the “apparent kon (pooled screen)” value [11]?
The value was 100000 M⁻¹ s⁻¹.

What about the “KD ratio (KD pH 5/KD pH 7)” value [12] of the same binder?
The value was 1.08.

What about the “kd ratio (kd pH 5/kd pH 7)” value [12] of the same binder?
The value was 0.63.

B2: P20-V1 (antibody, human IgG1, kappa, V domains shown)
VH: QVQLQESGPGLVKPSETLSLTCTVSGGSINNYYWSWIRQPPGKGLEWIGYIFYSGTTNYNPSLKSRVTISVDTSKNQFSLKLSSVTAADTAVYYCARDVGIAARNSYYYVMDVWGQGTTVTVSS
VL: AIQLTQSPSSLSASVGDRVTITCRASQGISSALAWYQQKPGKAPKFLIYEASSLESGVPSRFSGSGSGTDFTLTISSLQPEDFATYYCQQFNSYPITFGQGTRLEIKR
notes: Variant of P20
With B2 as the binder, how does the “IC50, IFNg, human whole blood IL-18+IL-12, Average” value [13] read?
The value was 2.28 nM.

What about the “IC50, IFNg, human whole blood IL-18+IL-12, donor C121” value [13] of the same binder?
The value was 3.6 nM.

And the “IC50, IFNg, human whole blood IL-18+IL-12, donor C121 (second row)” value [13]?
Its value is 1.3 nM.

What about the “IC50, IFNg, human whole blood IL-18+IL-12, donor C175” value [13] of the same binder?
Its value is 0.5 nM.

What about the “IC50, IFNg, human whole blood IL-18+IL-12, donor C237” value [13] of the same binder?
Its value is 2.74 nM.

And the “IC50, IFNg, human whole blood IL-18+IL-12, donor C238” value [13]?
Its value is 1.35 nM.

What about the “IC50, IFNg, human whole blood IL-18+IL-12, donor C249” value [13] of the same binder?
Its value is 4.29 nM.

And the “IC50, IFNg, human whole blood IL-18+IL-12, donor C252” value [13]?
The value was 3.23 nM.

And the “IC50, IFNg, human whole blood IL-18+IL-12, donor C253” value [13]?
Its value is 1.24 nM.

And the Kd [14]?
Its Kd is 0.5 nM.

What about the koff [14] of the same binder?
The koff was 0.00014 s⁻¹.

And the kon [14]?
The kon was 290000 M⁻¹ s⁻¹.

B3: P21 (antibody, human IgG1, kappa, V domains shown)
VH: QVQLQQSGPGLVKPSETLSLTCTVSGGSISNYYWTWIRQPPGKGLEWIGYISDSGSTNYNPSLKSRVTISVDTSKNQFSLKLSSVTAADTAVYYCARETIVVRGFYFYVMDVWGQGTTVTVSS
VL: B2 VL with K39R, F46L, E50D, S53N, L54W, I96W, R103K, L104V
notes: Human IgG
How did the Kd [1] turn out when B3 was run?
The Kd was 1.3 nM.

What about the koff [1] of the same binder?
Its koff is 0.00034 s⁻¹.

And the kon [1]?
Its kon is 270000 M⁻¹ s⁻¹.

What about the Kd [2] of the same binder?
Its Kd is 1.4 nM.

And the koff [2]?
Its koff is 0.00038 s⁻¹.

And the kon [2]?
Its kon is 260000 M⁻¹ s⁻¹.

And the “IC50, LPS+IL-12 dependent IFNg production, human whole blood” value [5]?
Its value is 0.3 nM.

What about the “y-max, LPS+IL-12 dependent IFNg production, human whole blood” value [5] of the same binder?
Its value is 98%.

What about the Kd [6] of the same binder?
The Kd was 18 nM.

And the Kd [7]?
Its Kd is 1.4 nM.

And the “IC50, LPS+IL-12 dependent IFNg production, human whole blood” value [8]?
Its value is 1.34 nM.

What about the “Average CSI-BLI ΔResponse” value [9] of the same binder?
The value was -0.03 nm.

And the Kd [10]?
The Kd was 0.65 nM.

What about the koff [10] of the same binder?
Its koff is 0.00031 s⁻¹.

And the kon [10]?
The kon was 480000 M⁻¹ s⁻¹.

And the Kd [11]?
Its Kd is 2.5 nM.

What about the koff [11] of the same binder?
The koff was 0.0004 s⁻¹.

What about the kon [11] of the same binder?
Its kon is 160000 M⁻¹ s⁻¹.

And the “KD ratio (KD pH 5/KD pH 7)” value [12]?
The value was 1.09.

What about the “kd ratio (kd pH 5/kd pH 7)” value [12] of the same binder?
The value was 0.79.
